How the values were obtained:
[1] = molecular target: T1, rHuman Erythropoietin R/Fc Chimera, CF (R&D Systems Cat#963-ER) (human, UniProt P19235 25-250); assay: ECL multispot (MSD) assay, antigen spotted on plate, Fab at 0.1 µM
T1 construct: Bought recombinant protein; also called EPO R; EPO R/Fc; Fc part of the bought chimera not given
T1 sequence (looked up): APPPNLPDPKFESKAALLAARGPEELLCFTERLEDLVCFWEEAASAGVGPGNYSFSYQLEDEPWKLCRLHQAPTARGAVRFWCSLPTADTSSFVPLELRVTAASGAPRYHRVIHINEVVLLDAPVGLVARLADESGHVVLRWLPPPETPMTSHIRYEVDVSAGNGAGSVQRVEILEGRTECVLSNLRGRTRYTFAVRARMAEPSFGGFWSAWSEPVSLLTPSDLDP

[2] = molecular target: T2, Recombinant Human DLL4 (R&D Systems Cat#1506-D4/CF) (human, UniProt Q9NR61 27-524); assay: as above
T2 construct: Bought recombinant protein; also called delta-like protein 4; rHuman DLL4

[3] = molecular target: T3, rHuman ErbB2/Fc Chimera, CF (R&D Systems Cat#1129-ER) (human, UniProt P04626 23-652); assay: as above
T3 construct: Bought recombinant protein; also called human epidermal growth factor 2 receptor; Fc part of the bought chimera not given

[4] = molecular target: T4, rHuman EGF R/Fc Chimera, CF (R&D Systems Cat#344-ER) (human, UniProt P00533 25-645); assay: as above
T4 construct: Bought recombinant protein; also called epidermal growth factor receptor; Fc part of the bought chimera not given

[5] = molecular target: T5, rHuman HGF R/c-MET/Fc Chimera, CF (R&D Systems Cat#358-MT/CF) (human, UniProt P08581 25-932); assay: as above
T5 construct: Bought recombinant protein; also called HGF R/Fc; hepatocyte growth factor receptor; Fc part of the bought chimera not given

[6] = molecular target: T6, rHuman Notch-1/Fc Chimera, CF (R&D Systems Cat#3647-TK) (human, UniProt P46531 19-526); assay: as above
T6 construct: Bought recombinant protein; Fc part of the bought chimera not given

[7] = molecular target: T7, rHuman CD44/Fc Chimera, CF (R&D Systems Cat#3660-CD) (human, UniProt P16070 21-220); assay: as above
T7 construct: Bought recombinant protein; Fc part of the bought chimera not given

[8] = molecular target: T8, rHuman IGF-1 sR, CF (R&D Systems Cat#391-GR) (human, UniProt P08069 31-932); assay: as above
T8 construct: Bought recombinant soluble receptor; also called insulin-like growth factor-1 soluble receptor

[9] = molecular target: T9, rHuman P-Cadherin/Fc Chimera, CF (R&D Systems Cat#861-PC) (human, UniProt P22223 108-654); assay: as above
T9 construct: Bought recombinant protein; Fc part of the bought chimera not given

[10] = molecular target: T1, rHuman Erythropoietin R/Fc Chimera, CF …; assay: ECL multispot (MSD) assay, antigen spotted on plate, Fab at 0.01 µM
[11] = molecular target: T2, Recombinant Human DLL4 (R&D Systems …); assay: as above
[12] = molecular target: T3, rHuman ErbB2/Fc Chimera, CF (R&D …); assay: as above
[13] = molecular target: T4, rHuman EGF R/Fc Chimera, CF (R&D …); assay: as above
[14] = molecular target: T5, rHuman HGF R/c-MET/Fc Chimera, CF (R&D …); assay: as above
[15] = molecular target: T6, rHuman Notch-1/Fc Chimera, CF (R&D …); assay: as above
[16] = molecular target: T7, rHuman CD44/Fc Chimera, CF (R&D Systems …); assay: as above
[17] = molecular target: T8, rHuman IGF-1 sR, CF (R&D Systems …); assay: as above
[18] = molecular target: T9, rHuman P-Cadherin/Fc Chimera, CF (R&D …); assay: as above
[19] = molecular target: T10, rHuman Erythropoietin R/Fc Chimera, CF (R&D Systems Cat#963-ER) (human, UniProt P19235 25-250); assay: Multispot ECL (MSD), antigen spotted on plate, Fab 210 nM; blank spot 833
T10 construct: Bought recombinant protein; also called EPO R/Fc; Epo R; Fc part of the bought chimera not given
T10 sequence (looked up): T1 sequence (looked up)

[20] = molecular target: T11, rHuman ErbB2/Fc Chimera, CF (R&D Systems Cat#1129-ER) (human, UniProt P04626 23-652); assay: as above
T11 construct: Bought recombinant protein; also called human epidermal growth factor 2 receptor; Fc part of the bought chimera not given

[21] = molecular target: T12, rHuman EGF R/Fc Chimera, CF (R&D Systems Cat#344-ER) (human, UniProt P00533 25-645); assay: as above
T12 construct: Bought recombinant protein; also called epidermal growth factor receptor; Fc part of the bought chimera not given

[22] = molecular target: T13, rHuman HGF R/c-MET/Fc Chimera, CF (R&D Systems Cat#358-MT/CF) (human, UniProt P08581 25-932); assay: as above
T13 construct: Bought recombinant protein; also called HGF R/Fc; hepatocyte growth factor receptor; Fc part of the bought chimera not given

[23] = molecular target: T14, rHuman CD44/Fc Chimera, CF (R&D Systems Cat#3660-CD) (human, UniProt P16070 21-220); assay: as above
T14 construct: Bought recombinant protein; Fc part of the bought chimera not given

[24] = molecular target: T10, rHuman Erythropoietin R/Fc Chimera, CF …; assay: Multispot ECL (MSD), antigen spotted on plate, Fab 3.3 nM; blank spot 359
[25] = molecular target: T11, rHuman ErbB2/Fc Chimera, CF (R&D …); assay: as above
[26] = molecular target: T12, rHuman EGF R/Fc Chimera, CF (R&D …); assay: as above
[27] = molecular target: T13, rHuman HGF R/c-MET/Fc Chimera, CF (R&D …); assay: as above
[28] = molecular target: T14, rHuman CD44/Fc Chimera, CF (R&D Systems …); assay: as above
[29] = molecular target: T10, rHuman Erythropoietin R/Fc Chimera, CF …; assay: Multispot ECL (MSD), antigen spotted on plate, Fab 13.1 nM; blank spot 376
[30] = molecular target: T11, rHuman ErbB2/Fc Chimera, CF (R&D …); assay: as above
[31] = molecular target: T12, rHuman EGF R/Fc Chimera, CF (R&D …); assay: as above
[32] = molecular target: T13, rHuman HGF R/c-MET/Fc Chimera, CF (R&D …); assay: as above
[33] = molecular target: T14, rHuman CD44/Fc Chimera, CF (R&D Systems …); assay: as above
[34] = molecular target: T10, rHuman Erythropoietin R/Fc Chimera, CF …; assay: Multispot ECL (MSD), antigen spotted on plate, Fab 52.5 nM; blank spot 467
[35] = molecular target: T11, rHuman ErbB2/Fc Chimera, CF (R&D …); assay: as above
[36] = molecular target: T12, rHuman EGF R/Fc Chimera, CF (R&D …); assay: as above
[37] = molecular target: T13, rHuman HGF R/c-MET/Fc Chimera, CF (R&D …); assay: as above
[38] = molecular target: T14, rHuman CD44/Fc Chimera, CF (R&D Systems …); assay: as above

B1: Fab VH1-46_IGHD6-6*01_IGHJ1*01 S102A & L6_IGKJ1*01 (Fab, V domains shown)
VH: QVQLVQSGAEVKKPGASVKVSCKASGYTFTSYYMHWVRQAPGQGLEWMGIINPSGGSTSYAQKFQGRVTMTRDTSTSTVYMELSSLRSEDTAVYYCAREEYASSSAEYFQHWGQGTLVTVSS
VL: not shown
notes: Tested as a Fab expressed in E. coli (Plasmid A: CH1, His6 and Flag tags; Plasmid C: kappa CL)
Question: For B1, which ECL signal/noise ratio [1] is on record?
Answer: Its ECL signal/noise ratio is 1.3.

Question: What about the ECL signal/noise ratio [2] of the same binder?
Answer: Its ECL signal/noise ratio is 71.6.

Question: What about the ECL signal/noise ratio [3] of the same binder?
Answer: The ECL signal/noise ratio was 0.8.

Question: What about the ECL signal/noise ratio [4] of the same binder?
Answer: The ECL signal/noise ratio was 0.9.

Question: What about the ECL signal/noise ratio [5] of the same binder?
Answer: Its ECL signal/noise ratio is 0.5.

Question: What about the ECL signal/noise ratio [6] of the same binder?
Answer: Its ECL signal/noise ratio is 1.4.

Question: And the ECL signal/noise ratio [7]?
Answer: Its ECL signal/noise ratio is 1.3.

Question: What about the ECL signal/noise ratio [8] of the same binder?
Answer: Its ECL signal/noise ratio is 1.3.

Question: What about the ECL signal/noise ratio [9] of the same binder?
Answer: The ECL signal/noise ratio was 1.

Question: And the ECL signal/noise ratio [10]?
Answer: The ECL signal/noise ratio was 0.8.

Question: What about the ECL signal/noise ratio [11] of the same binder?
Answer: Its ECL signal/noise ratio is 10.

Question: What about the ECL signal/noise ratio [12] of the same binder?
Answer: The ECL signal/noise ratio was 1.

Question: And the ECL signal/noise ratio [13]?
Answer: Its ECL signal/noise ratio is 0.8.

Question: And the ECL signal/noise ratio [14]?
Answer: The ECL signal/noise ratio was 0.5.

Question: What about the ECL signal/noise ratio [15] of the same binder?
Answer: Its ECL signal/noise ratio is 0.6.

Question: And the ECL signal/noise ratio [16]?
Answer: Its ECL signal/noise ratio is 0.9.

Question: What about the ECL signal/noise ratio [17] of the same binder?
Answer: Its ECL signal/noise ratio is 0.5.

Question: What about the ECL signal/noise ratio [18] of the same binder?
Answer: The ECL signal/noise ratio was 0.2.

B2: Fab VH4-31_IGHD2-15*01_IGHJ2*01 & V1-4_IGLJ4*01 (Fab, V domains shown)
VH: QVQLQESGPGLVKPSQTLSLTCTVSGGSISSGGYYWSWIRQHPGKGLEWIGYIYYSGSTYYNPSLKSRVTISVDTSKNQFSLKLSSVTAADTAVYYCAREGYCSGGSCYSYWYFDLWGRGTLVTVSS
VL: QSALTQPASVSGSPGQSITISCTGTSSDVGGYNYVSWYQQHPGKAPKLMIYEVSNRPSGVSNRFSGSKSGNTASLTISGLQAEDEADYYCSSYTSSSTLFVFGGGTQLIIL
notes: Tested as a Fab made in E. coli; The heavy chain variable region was cloned into Plasmid A (CH1 constant region, His6 and Flag tags); The lambda light chain variable region was cloned into Plasmid E (lambda CL); Only the variable domains are tied to this Fab by name
Question: What does the source list for B2?
Answer: ECL signal at 210 nM Fab [19]: 2120; ECL signal at 210 nM Fab [20]: 1980; ECL signal at 210 nM Fab [21]: 1620; ECL signal at 210 nM Fab [22]: 2060; ECL signal at 210 nM Fab [23]: 1400; ECL signal at 3.3 nM Fab [24]: 695; ECL signal at 3.3 nM Fab [25]: 1030; ECL signal at 3.3 nM Fab [26]: 847; ECL signal at 3.3 nM Fab [27]: 849; ECL signal at 3.3 nM Fab [28]: 621; ECL signal at 13.1 nM Fab [29]: 776; ECL signal at 13.1 nM Fab [30]: 930; ECL signal at 13.1 nM Fab [31]: 824; ECL signal at 13.1 nM Fab [32]: 981; ECL signal at 13.1 nM Fab [33]: 708; ECL signal at 52.5 nM Fab [34]: 1320; ECL signal at 52.5 nM Fab [35]: 1510; ECL signal at 52.5 nM Fab [36]: 1110; ECL signal at 52.5 nM Fab [37]: 1290; ECL signal at 52.5 nM Fab [38]: 897

From patent publication US20120316071A1 (published 2012)
